This is an account of results in paper PMC5799254, “Target identification of small molecules using large-scale CRISPR-Cas mutagenesis scanning of essential genes” (Nature Communications, 2018).

One may read the stoichiometry N as a count of units in the complex or per binding partner.

The series deals with the molecule itself. Kind of series: crystal structure; co-crystal of NAMPT (10 mg/mL) with a 5-fold excess of KPT-9274; hanging drops, 20 °C, reservoir 0.2 M NaCl, 0.1 M Tris pH 8.5, 22% PEG 3350.

B1: nicotinamide phosphoribosyltransferase (NAMPT) (enzyme, human, UniProt P43490 1-491, looked up)
chain: MNPAAEAEFNILLATDSYKVTHYKQYPPNTSKVYSYFECREKKTENSKLRKVKYEETVFYGLQYILNKYLKGKVVTKEKIQEAKDVYKEHFQDDVFNEKGWNYILEKYDGHLPIEIKAVPEGFVIPRGNVLFTVENTDPECYWLTNWIETILVQSWYPITVATNSREQKKILAKYLLETSGNLDGLEYKLHDFGYRGVSSQETAGIGASAHLVNFKGTDTVAGLALIKKYYGTKDPVPGYSVPAAEHSTITAWGKDHEKDAFEHIVTQFSSVPVSVVSDSYDIYNACEKIWGEDLRHLIVSRSTQAPLIIRPDSGNPLDTVLKVLEILGKKFPVTENSKGYKLLPPYLRVIQGDGVDINTLQEIVEGMKQKMWSIENIAFGSGGGLLQKLTRDLLNCSFKCSYVVTNGLGINVFKDPVADPNKRSKKGRLSLHRTPAGNFVTLEEGKGDLEEYGQDLLHTVFKNGKVTKSYSFDEIRKNAQLNIELEAAHH
notes: nicotinamide phosphoribosyltransferase (NAMPT, NMPRTase), human, full length; also called NMPRTase
As for B1, the “stoichiometry N” value came out at 2.
